Data reported in US7842469B2, “Bioluminescence resonance energy transfer (BRET) systems and methods of use thereof” (Stanford University, priority 2005, dated 2010).
Substitutions are numbered along the chain they refer to. In names and notes the source's numbering stands. Like-named read-outs stand apart in the source and are kept apart here.

B1: C124A/M185V: double mutant (C124A/M185V) Renilla Luciferase protein (SEQ ID NO: 2) (protein)
chain: MASKVYDPEQRKRMITGPQWWARCKQMNVLDSFINYYDSEKHAENAVIFLHGNAASSYLWRHVVPHIEPVARCIIPDLIGMGKSGKSGNGSYRLLDHYKYLTAWFELLNLPKKIIFVGHDWGAALAFHYSYEHQDKIKAIVHAESVVDVIESWDEWPDIEEDIALIKSEEGEKMVLENNFFVETVLPSKIMRKLEPEEFAAYLEPFKEKGEVRRPTLSWPREIPLVKGGKPDVVQIVRNYNAYLRASDDLPKMFIESDPGFFSNAIVEGAKKFPNTEFVKVKGLHFSQEDAPDEMGKYIKSFVERVLKNEQ
modifications: Chemically synthesized Renilla Luciferase
B2: C124A/M253L: RLuc mutant C124A/M253L (protein)
chain: B1 chain with V185M, M253L
B3: C124A: RLuc with the C124A mutation (C152A in Liu and Escher), with Myc epitope (protein)
chain: B1 chain with V185M
modifications: Myc epitope tag; Chemically synthesized Renilla Luciferase
B4: C124A/S287L: RLuc mutant C124A/S287L (protein)
chain: B1 chain with V185M, S287L

Legend:
[1] = target: MDR1 P-glycoprotein (Pgp) (Homo sapiens, UniProt P08183); conditions: cited from earlier work
293T cells = assay: Mammalian expression, transient transfection, light output in 293T cells; format: cell-based, human; conditions: for Light output after transient transfection, 293T: pcDNA 3.1 CMV plasmid, 24 hours post transfection, coelenterazine
Description: (§1) Mammalian Expression: In order to construct mammalian expression vectors, bacterial expression vectors containing the desired mutations were used as templates for PCR, with primers designed such that the N-terminal pelB sequence would be replaced by a methionine codon and a C-terminal stop codon would replace the Myc epitope and 6×His tag. The primers also contained appropriate NheI and HindIII restriction sites to allow insertion of the product into the pcDNA 3.1 plasmid (Invitrogen). The resultant plasmids were transiently transfected using SuperFect (Qiagen) into 293T or Chinese Hamster Ovarian (CHO, ATCC# CCL-61) cells growing in 24 well plates following the manufacturer's protocol. Twenty-four hours post transfection, 0.5 μg/well of coelenterazine was added, and the plates were imaged in an IVIS 50 imaging system (Xenogen, Alameda, Calif.).

[2] = Luciferase activity of purified RLuc mutants (light output integrated over 10 s, luminometer); format: biochemical; conditions: for Activity (relative to RLuc) bc: benzyl-coelenterazine; for Activity (relative to RLuc) bc / Activity (relative to RLuc) bdc / Activity (relative to RLuc) cp / Activity (relative to RLuc) n / Activity (relative to RLuc) native: relative to native enzyme; for Activity (relative to RLuc) bdc: bisdeoxycoelenterazine; for Activity (relative to RLuc) cp: coelenterazine-cp; for Activity (relative to RLuc) n: coelenterazine-n; for Activity (relative to RLuc) native: native coelenterazine
Summary of the method: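 Purified RLuc mutant sample, diluted in EB with 1% HSA, added to room-temperature 100 mM sodium phosphate (pH 7), then 1 μl of 0.5 μg/μl coelenterazine or analog mixed in manually. Light read for 10 s starting ~4 s after luciferin addition. Luminometer calibrated to photons/s against luminol standard in DMSO.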

[3] = Quantum yield measurements; format: biochemical; conditions: for Quantum Yield (%) bc: benzyl-coelenterazine; for Quantum Yield (%) bdc: bisdeoxycoelenterazine; for Quantum Yield (%) cp: coelenterazine-cp; for Quantum Yield (%) n: coelenterazine-n; for Quantum Yield (%) native: native coelenterazine
Experimental: For quantum yield measurements, separate 1 μl drops of protein (about 2 pm) and substrate (0.2 pm) were placed in a tube, 100 μl of 100 mM sodium phosphate buffer (pH 7) was injected by the luminometer to mix, and the total light output was integrated (generally 5-10 min). For coelenterazine-n, the protein amount was increased 10 fold and the acquisition time lengthened to insure the reaction approached completion.

[4] = Serum stability in mouse serum at 37° C.; format: in vitro ADME; conditions: mouse serum, 37° C., mono-exponential fit
Summary of the method: (§2)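 Luciferase diluted into mouse or rat serum at 37° C; aliquots withdrawn over time for activity, half-life from mono-exponential decay fit. Emission spectra recorded at ambient temperature with a grating spectrometer and cooled CCD detector.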

[5] = Bioluminescence emission spectra; format: physicochemical; conditions: emission spectrum with native coelenterazine
Summary of the method: as §2

CHO cells = assay: Mammalian expression, transient transfection, light output in CHO cells; format: cell-based, Chinese Hamster; conditions: pcDNA 3.1 CMV plasmid, 24 hours post transfection, coelenterazine
Description: as §1

[6] = Serum stability in rat serum at 37° C.; format: in vitro ADME; conditions: mono-exponential fit
Summary of the method: as §2

[7] = Kinetics (Michaelis-Menten fit to initial reaction velocity); format: biochemical; conditions: coelenterazine 0.038 to 24 μM; formal standard error of fit
Experimental: Kinetics: Kinetics were assessed by injecting 100 μl of 100 mM sodium phosphate buffer (pH 7) containing coelenterazine onto 1 μl of protein (diluted appropriately in EB containing 1% HSA), and recording the light output for 20 min. The final coelenterazine concentrations tested were 118, 24, 4.7, 0.94, 0.19, and 0.038 μM. The final Luciferase concentrations were in the range of 1-7 pM. Coelenterazine absorbance was corrected for, although this was only significant for the highest concentration (10% attenuation). The values were converted from photons/s to molecules/s using the data from the quantum yield measurements, converted from flux units to mass units via integration, and processed using the kinetic curve fitting program Dynafit.

[8] = tested on: HT1080 fibro-sarcoma cells; assay: BRET vectors with RLuc mutants fused to GFP^2, CCD camera spectral imaging in cells; format: cell-based; conditions: Coelenterazine400a; normalized with CMV-FLuc; P<0.01
Experimental: Methods: Three different mutations of RLuc, a single mutation C124A, a double mutation C124A/M185V, and a combination of eight mutations called RLuc8, were fused with GFP^2 and tested in HT1080 fibro-sarcoma cells by using CCD camera based spectral imaging. The new vectors were also tested in a small animal tumor model with implanted cells at various tissue depths.
FIG. 7 illustrates a comparative chart showing normalized donor (RLUC) and acceptor (GFP2) signal as measured from 293T cells transiently transfected with the marked plasmid vectors. BRET2 represents GFP2-Rluc, BRET-C represents GFP2-Rluc C124A, BRET-M represents Rluc C124A/M185V, BRET-Rl8 represents GFP2-Rluc8, RL represents Rluc, RL-C represents RLuc C124A, RL-M represents RLuc C124A/M185V, and Rl8 represents Rluc8. CCD camera scans were performed by adding Coelenterazine400a to the well plates. The cells were co-transfected with CMV-FLuc plasmid and scaned at the same time using D-Luciferin substrate for normalization purposes.
FIGS. 8A and 8B illustrate comparative assessments on signal quantification from HT1080 cells stably over-expressing GFP2-Rluc8 (8A) and GFP2-Rluc (8B) plasmid vectors. […] The line represents the calculated BRET ratios at each time point of measurements. […]

Sequence of MDR1 P-glycoprotein (Pgp) (P08183 whole entry): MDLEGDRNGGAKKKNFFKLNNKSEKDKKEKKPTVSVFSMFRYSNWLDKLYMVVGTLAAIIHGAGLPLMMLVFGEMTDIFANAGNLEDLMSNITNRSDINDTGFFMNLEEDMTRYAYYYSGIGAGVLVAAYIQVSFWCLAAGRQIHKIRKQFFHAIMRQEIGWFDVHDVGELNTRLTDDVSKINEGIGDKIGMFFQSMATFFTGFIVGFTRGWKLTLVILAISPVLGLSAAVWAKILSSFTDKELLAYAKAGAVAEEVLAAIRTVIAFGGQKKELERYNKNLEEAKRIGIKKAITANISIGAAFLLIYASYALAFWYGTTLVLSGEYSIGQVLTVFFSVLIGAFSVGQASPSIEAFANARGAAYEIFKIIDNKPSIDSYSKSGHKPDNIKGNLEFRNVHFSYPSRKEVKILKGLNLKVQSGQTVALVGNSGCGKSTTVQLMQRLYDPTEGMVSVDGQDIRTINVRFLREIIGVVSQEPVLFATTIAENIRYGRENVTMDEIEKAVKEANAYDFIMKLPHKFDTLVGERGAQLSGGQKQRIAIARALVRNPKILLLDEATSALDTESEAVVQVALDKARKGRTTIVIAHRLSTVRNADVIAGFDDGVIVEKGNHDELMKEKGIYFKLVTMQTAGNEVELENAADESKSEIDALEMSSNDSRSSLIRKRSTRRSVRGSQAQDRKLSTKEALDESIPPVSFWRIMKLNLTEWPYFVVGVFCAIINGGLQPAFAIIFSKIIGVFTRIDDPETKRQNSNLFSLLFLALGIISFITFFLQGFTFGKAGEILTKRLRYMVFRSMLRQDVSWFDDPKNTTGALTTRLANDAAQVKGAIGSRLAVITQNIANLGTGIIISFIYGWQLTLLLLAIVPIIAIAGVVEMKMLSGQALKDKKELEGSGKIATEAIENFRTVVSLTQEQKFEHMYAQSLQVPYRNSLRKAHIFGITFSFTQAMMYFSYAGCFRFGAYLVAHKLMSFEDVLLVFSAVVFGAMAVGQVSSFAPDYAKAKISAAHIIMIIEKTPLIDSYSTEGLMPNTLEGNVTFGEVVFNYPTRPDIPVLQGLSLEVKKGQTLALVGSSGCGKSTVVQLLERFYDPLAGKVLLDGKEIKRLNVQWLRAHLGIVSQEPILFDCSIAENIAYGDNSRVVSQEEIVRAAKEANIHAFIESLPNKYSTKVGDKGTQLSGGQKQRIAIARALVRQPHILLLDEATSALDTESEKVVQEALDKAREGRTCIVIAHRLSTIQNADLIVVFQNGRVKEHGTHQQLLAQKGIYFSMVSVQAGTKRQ

Row | Molecule | Activity (relative to RLuc) bc [2] | Activity (relative to RLuc) bdc [2] | Activity (relative to RLuc) cp [2] | Activity (relative to RLuc) n [2] | Activity (relative to RLuc) native [2] | Quantum Yield (%) bc [3] [%] | Quantum Yield (%) bdc [3] | Quantum Yield (%) cp [3] [%] | Quantum Yield (%) n [3] [%] | Quantum Yield (%) native [3] [%] | Serum τ1/2 (h) mouse [4] [h] | Wavelength (nm) mean [5] [nm] | Wavelength (nm) peak [5] [nm] | Serum τ1/2 (h) rat [6] [h] | also measured
1 | Oc1ccc(Cc2nc3c(CC4CCCC4)nc(-c4ccc(O)cc4)cn3c2O)cc1 [coelenterazine-cp] | – | – | – | – | – | – | – | – | – | – | – | – | – | – | substrate for MDR1 P-glycoprotein (Pgp) ([1]; mammalian cells): not substrates for Pgp
2 | Coelenterazine-n | – | – | – | – | – | – | – | – | – | – | – | – | – | – | substrate for MDR1 P-glycoprotein (Pgp) [1]: not substrates for Pgp
3 | Oc1ccc(Cc2nc3c(Cc4ccccc4)nc(-c4ccc(O)cc4)cn3c2O)cc1 [coelenterazine, Coelenterazine] | – | – | – | – | – | – | – | – | – | – | – | – | – | – | substrate for MDR1 P-glycoprotein (Pgp) ([1]; mammalian cells): is a substrate for MDR1 P-glycoprotein
4 | B1 | 3.0 | 44 | 15 | 7.8 | 3.4 | 6.3 ± 0.1 | (174.4 ± 6.7) × 10^−3% | 10.1 ± 0.2 | 9.4 ± 0.4 | 6.9 ± 0.3 | 5.7 | 500 | 485 | 3.7 | increase in light relative to C124A after transient transfection into mammalian cells (293T cells; mammalian cells (293T or CHO)): approximately 3 fold; Light output after transient transfection, 293T (293T cells): 174.1 ± 25.7 photons × 10^6/s/cm^2/steradian; light output compared to M185V alone ([2]; bisdeoxycoelenterazine (Coelenterazine 400a)): 2 fold; increase in activity compared to the C124A mutant ([2]; in vitro): approximately 3 fold; Light output after transient transfection, CHO (CHO cells): 172.4 ± 8.4 photons × 10^6/s/cm^2/steradian
5 | B2 | 1.4 | 1.7 | 1.6 | 1.6 | 1.9 | 3.5 ± 0.1 | (7.6 ± 0.3) × 10^−3% | 5.1 ± 0.2 | 5.8 ± 0.1 | 5.5 ± 0.1 | 15 | 488 | 471 | 10 | –
6 | B3 | 0.75 | 0.68 | 0.79 | 0.63 | 1.2 ± 0.1 | 3.6 ± 0.1 | (7.7 ± 0.5) × 10^−3% | 5.2 ± 0.1 | 6.4 ± 0.01 | 5.4 ± 0.3 | 7.1 ± 0.4 | 498 | 482 | 6.6 ± 0.5 | Light output after transient transfection, 293T (293T cells): 62.8 ± 12.9 photons × 10^6/s/cm^2/steradian; Light output after transient transfection, CHO (CHO cells): 64.0 ± 4.9 photons × 10^6/s/cm^2/steradian; Km [7]: 2700 ± 800 nM; kcat [7]: 4.7 ± 0.4 s⁻¹; increase of normalized luciferase signal in comparison to cells expressing GFP^2-RLUC [8]: No significant improvements
7 | B4 | 2.8 | 9.5 | 3.4 | 5.0 | 3.9 | 5.0 ± 0.1 | (20.9 ± 0.6) × 10^−3% | 7.2 ± 0.3 | 7.7 ± 0.2 | 6.1 ± 0.2 | 28 | 496 | 478 | 20 | –
